Assays:
Experiment in all cases: cell-based or functional assay
[1] = target: 6535.3 Env pseudovirus (HIV-1)
[2] = target: Ce1086_B2 Env pseudovirus (HIV-1)
[3] = target: TRO.11 Env pseudovirus (HIV-1)
[4] = target: Ce704809221_1B3 Env pseudovirus (HIV-1)
[5] = target: PVO.4 Env pseudovirus (HIV-1)
[6] = target: ZM53M.PB12 Env pseudovirus (HIV-1)
[7] = target: 0260.v5.c36 Env pseudovirus (HIV-1)
[8] = target: TRJO4551.58 Env pseudovirus (HIV-1)
[9] = target: 1054_07_TC4_1499 Env pseudovirus (HIV-1)
[10] = target: Du172.17 Env pseudovirus (HIV-1)
[11] = target: Q23.17 Env pseudovirus (HIV-1)
[12] = target: ZM197M.PB7 Env pseudovirus (HIV-1)
[13] = target: 3365.v2.c2 Env pseudovirus (HIV-1)
[14] = target: HIV-16055-2.3 Env pseudovirus (HIV-1)
[15] = target: WITO4160.33 Env pseudovirus (HIV-1)
[16] = target: HIV-16845-2.22 Env pseudovirus (HIV-1)
[17] = target: CAP45.2.00.G3 Env pseudovirus (HIV-1)
[18] = target: 1006_11_C3_1601 Env pseudovirus (HIV-1)
[19] = target: CAAN5342.A2 Env pseudovirus (HIV-1)
[20] = target: Du422.1 Env pseudovirus (HIV-1)
[21] = target: CNE53 Env pseudovirus (HIV-1)
[22] = target: Ce2010_F5 Env pseudovirus (HIV-1)
[23] = target: RHPA4259.7 Env pseudovirus (HIV-1)
[24] = target: CNE21 Env pseudovirus (HIV-1)
[25] = target: 249M B10 Env pseudovirus (HIV-1)
[26] = target: CNE30 Env pseudovirus (HIV-1)
[27] = target: Ce0682_E4 Env pseudovirus (HIV-1)
[28] = target: CNE52 Env pseudovirus (HIV-1)
[29] = target: 3415.v1.c1 Env pseudovirus (HIV-1)
[30] = target: SC05_8C11_2344 Env pseudovirus (HIV-1)
[31] = target: T257-31 Env pseudovirus (HIV-1)
[32] = target: CNE58 Env pseudovirus (HIV-1)
[33] = target: 1012_11_TC21_3257 Env pseudovirus (HIV-1)
[34] = target: 1394C9G1(Rev-) Env pseudovirus (HIV-1)
[35] = target: MuLV envelope (negative control pseudovirus) (MuLV)
[36] = target: ZM247v1(Rev-) Env pseudovirus (HIV-1)

B1: N49P23 (antibody, V domains shown)
VH: QVRLVQSGAGARKTGASMKLSCSTSGYTFTTHHGHFINWVRQARGQGLEWMGWMNPMTGQMNIEGKFQGRVTLTRDIYSDTAYMEMTRLTTGDTGTYYCARGDFGQNYPFHYWGQGSLVIVSS
VL: LSALTQPASVSGSPGQSVTISCSGTNRYLVSWYQQHPDKAPKLIIYDDNKRPSGISDRFSASRPDDTASLTISGLQTGDEATYWCASYERFGGGTRLTVLS
IC50 [1]: 0.127 µg/mL
IC80 [1]: 0.855 µg/mL
MPI [1]: 100
IC50 [2]: 0.063 µg/mL
IC80 [2]: 0.303 µg/mL
MPI [2]: 100
IC50 [3]: 0.094 µg/mL
IC80 [3]: 0.336 µg/mL
MPI [3]: 100
IC50 [4]: 0.083 µg/mL
IC80 [4]: 0.643 µg/mL
MPI [4]: 100
IC50 [5]: 0.087 µg/mL
IC80 [5]: 0.43 µg/mL
MPI [5]: 100
IC50 [6]: 0.135 µg/mL
IC80 [6]: 0.651 µg/mL
MPI [6]: 100
IC50 [7]: 0.261 µg/mL
IC80 [7]: 0.919 µg/mL
MPI [7]: 100
IC50 [8]: 0.016 µg/mL
IC80 [8]: 0.068 µg/mL
MPI [8]: 100
IC50 [9]: 0.272 µg/mL
IC80 [9]: 1.21 µg/mL
MPI [9]: 100
IC50 [10]: > 50 µg/mL
IC80 [10]: > 50 µg/mL
MPI [10]: 45
IC50 [11]: 0.01 µg/mL
IC80 [11]: 0.046 µg/mL
MPI [11]: 100
IC50 [12]: 0.1 µg/mL
IC80 [12]: 0.385 µg/mL
MPI [12]: 100
IC50 [13]: 0.017 µg/mL
IC80 [13]: 0.053 µg/mL
MPI [13]: 100
IC50 [14]: > 50 µg/mL
IC80 [14]: > 50 µg/mL
MPI [14]: 17
IC50 [15]: 0.045 µg/mL
IC80 [15]: 0.205 µg/mL
MPI [15]: 100
IC50 [16]: > 50 µg/mL
IC80 [16]: > 50 µg/mL
MPI [16]: 20
IC50 [17]: > 50 µg/mL
IC80 [17]: > 50 µg/mL
MPI [17]: 0
IC50 [18]: 0.015 µg/mL
IC80 [18]: 0.054 µg/mL
MPI [18]: 100
IC50 [19]: 0.412 µg/mL
IC80 [19]: 1.38 µg/mL
MPI [19]: 100
IC50 [20]: > 50 µg/mL
IC80 [20]: > 50 µg/mL
MPI [20]: 4
IC50 [21]: 0.026 µg/mL
IC80 [21]: 0.095 µg/mL
MPI [21]: 100
IC50 [22]: 1.59 µg/mL
IC80 [22]: 11.6 µg/mL
MPI [22]: 91
IC50 [23]: 0.01 µg/mL
IC80 [23]: 0.04 µg/mL
MPI [23]: 100
IC50 [24]: > 50 µg/mL
IC80 [24]: > 50 µg/mL
MPI [24]: 0
IC50 [25]: > 50 µg/mL
IC80 [25]: > 50 µg/mL
MPI [25]: 20
IC50 [26]: 0.143 µg/mL
IC80 [26]: 0.68 µg/mL
MPI [26]: 100
IC50 [27]: 1.39 µg/mL
IC80 [27]: > 50 µg/mL
MPI [27]: 76
IC50 [28]: 0.014 µg/mL
IC80 [28]: 0.051 µg/mL
MPI [28]: 100
IC50 [29]: 0.054 µg/mL
IC80 [29]: 0.19 µg/mL
MPI [29]: 100
IC50 [30]: 0.133 µg/mL
IC80 [30]: 0.548 µg/mL
MPI [30]: 100
IC50 [31]: 0.178 µg/mL
IC80 [31]: 1.17 µg/mL
MPI [31]: 100
IC50 [32]: > 50 µg/mL
IC80 [32]: > 50 µg/mL
MPI [32]: 9
IC50 [33]: 0.013 µg/mL
IC80 [33]: 0.085 µg/mL
MPI [33]: 100
IC50 [34]: > 50 µg/mL
IC80 [34]: > 50 µg/mL
MPI [34]: 34
IC50 [35]: > 50 µg/mL
IC80 [35]: > 50 µg/mL
MPI [35]: 9
IC50 [36]: > 50 µg/mL
IC80 [36]: > 50 µg/mL
MPI [36]: 24

B2: N49P22 (antibody, V domains shown)
V domain 1: HIQLLQSGPQVKKSGDTVRISCETSGYNFVDSRIHWVRQTPEKRLRWMGWINPLQGGVNYAPEFQGRIRMTRDTFIDTVYVDLSGLTPADTAYYYCARGIDGKSYPFHFWGHGTRVTVFS
V domain 2: RFALTQPASVSGSPGQTITITCAGGSVSWFHFPPGKTPRLIIYESSKRPSGVSPRFSGSQSGSTASLIISGLQSDDEGTYFCSILEFFGRGTLVTVLS
IC50 [1]: > 50 µg/mL
IC80 [1]: > 50 µg/mL
MPI [1]: 5
IC50 [2]: > 50 µg/mL
IC80 [2]: > 50 µg/mL
MPI [2]: 0
IC50 [3]: 0.283 µg/mL
IC80 [3]: 1.36 µg/mL
MPI [3]: 99
IC50 [4]: 15.8 µg/mL
IC80 [4]: > 50 µg/mL
MPI [4]: 60
IC50 [5]: 0.433 µg/mL
IC80 [5]: 1.49 µg/mL
MPI [5]: 100
IC50 [6]: 1.2 µg/mL
IC80 [6]: 11.8 µg/mL
MPI [6]: 91
IC50 [7]: 1.67 µg/mL
IC80 [7]: 14.4 µg/mL
MPI [7]: 93
IC50 [8]: > 50 µg/mL
IC80 [8]: > 50 µg/mL
MPI [8]: 28
IC50 [9]: 0.654 µg/mL
IC80 [9]: 2.89 µg/mL
MPI [9]: 100
IC50 [10]: > 50 µg/mL
IC80 [10]: > 50 µg/mL
MPI [10]: 4
IC50 [11]: 0.321 µg/mL
IC80 [11]: 2.4 µg/mL
MPI [11]: 96
IC50 [12]: 2.58 µg/mL
IC80 [12]: 25.1 µg/mL
MPI [12]: 84
IC50 [13]: 0.254 µg/mL
IC80 [13]: 0.857 µg/mL
MPI [13]: 98
IC50 [14]: 4.66 µg/mL
IC80 [14]: 39.7 µg/mL
MPI [14]: 83
IC50 [15]: 4.86 µg/mL
IC80 [15]: > 50 µg/mL
MPI [15]: 74
IC50 [16]: 4.6 µg/mL
IC80 [16]: 41.9 µg/mL
MPI [16]: 87
IC50 [17]: > 50 µg/mL
IC80 [17]: > 50 µg/mL
MPI [17]: 0
IC50 [18]: 0.898 µg/mL
IC80 [18]: 14.7 µg/mL
MPI [18]: 83
IC50 [19]: 0.425 µg/mL
IC80 [19]: 1.88 µg/mL
MPI [19]: 99
IC50 [20]: > 50 µg/mL
IC80 [20]: > 50 µg/mL
MPI [20]: 4
IC50 [21]: 0.779 µg/mL
IC80 [21]: 5.11 µg/mL
MPI [21]: 93
IC50 [22]: 2.05 µg/mL
IC80 [22]: 11.7 µg/mL
MPI [22]: 93
IC50 [23]: 0.637 µg/mL
IC80 [23]: 5.6 µg/mL
MPI [23]: 92
IC50 [24]: > 50 µg/mL
IC80 [24]: > 50 µg/mL
MPI [24]: 0
IC50 [25]: > 50 µg/mL
IC80 [25]: > 50 µg/mL
MPI [25]: 4
IC50 [26]: > 50 µg/mL
IC80 [26]: > 50 µg/mL
MPI [26]: 30
IC50 [27]: 1.13 µg/mL
IC80 [27]: > 50 µg/mL
MPI [27]: 75
IC50 [28]: 1.7 µg/mL
IC80 [28]: 10 µg/mL
MPI [28]: 91
IC50 [29]: 0.198 µg/mL
IC80 [29]: 1.41 µg/mL
MPI [29]: 96
IC50 [30]: 0.251 µg/mL
IC80 [30]: 2.16 µg/mL
MPI [30]: 97
IC50 [31]: > 50 µg/mL
IC80 [31]: > 50 µg/mL
MPI [31]: 43
IC50 [32]: 28.4 µg/mL
IC80 [32]: > 50 µg/mL
MPI [32]: 57
IC50 [33]: 15.7 µg/mL
IC80 [33]: > 50 µg/mL
MPI [33]: 53
IC50 [34]: > 50 µg/mL
IC80 [34]: > 50 µg/mL
MPI [34]: 35
IC50 [35]: > 50 µg/mL
IC80 [35]: > 50 µg/mL
MPI [35]: 8
IC50 [36]: > 50 µg/mL
IC80 [36]: > 50 µg/mL
MPI [36]: 11

Source: patent US20240117018A1
